Laboratory results as given in patent US20210221879A1.

B1: novel monoclonal antibody PB-1 (antibody, V domains shown)
VH: EVRLQQSGPELVKPGTSVKISCKASGYSFTGYYMHWVKQSPVKSLEWIGRIIPYNGATSYNQNFKDKASLTVDKSSRTAYMDLHSLTSEDSAVYYCARSRYYGRAPYYFDYWGQGTTLTVSS
VL: DVVVTQTPLSLPVSLGDQASISCRSSQSIVHSNGNTYLEWYLQKPGQSPKLLIYKVSNRFSGVPDRISGSGSGTDFTLKISRVEAGDLGVYSCFQGSHVPFTFGSGTKLEIK
B2: novel monoclonal antibody SJ-5 (antibody, V domains shown)
VH: EVMLVESGGRLVKPGGSLKLSCAASGFTFSSYGMSWVRQTPEKRLEWVATISGGGSYTYYPDSVKGRFTISRDNVKNNLYLQMSSLRSEDTALYYCARRGAYGDYGWFAYWGQGTLVTVSA
VL: DIVLTQSPATLSVTPGDSVSLSCRASQSINNNLHWYQQKSHESPRLLIKCASQSISGIPSRFSGSGSGTDFTLSINSVETEDFGMYFCQQSNSWPLTFGAGTKLELK

Assays:
[1] = target: BSA cross-linked with A-peak (A-peak-BSA) (bovine) (UniProt P02769); test: SPR, Biacore T200; A-peak-BSA amine-coupled to a CM5 chip (72 RU), PB-1 at 0.1953 to 50 nM, 1:1 binding model
[2] = target: BSA cross-linked with A-peak (A-peak-BSA) (bovine) (UniProt P02769); test: cross-competition ELISA: unlabeled antibody varied (0.049 to 50 µg/mL), HRP-labeled SJ-5 as competitor on immobilised A-peak-BSA, absorbance 450-650 nm
[3] = target: BSA modified with the novel structure derived from Glycer-AGEs (GAL13-BSA) (bovine) (UniProt P02769); test: SPR, Biacore T200; GAL13-BSA amine-coupled to a CM5 chip
[4] = target: BSA modified with the novel structure derived from Glycer-AGEs (GAL13-BSA) (bovine) (UniProt P02769); test: direct ELISA: POD-labeled antibody on immobilised GAL13-BSA (1 µg/mL), absorbance at 490 nm
[5] = target: Bovine serum albumin containing AGEs derived from glyceraldehyde (Glycer-AGEs-BSA) (bovine) (UniProt P02769); test: SPR, Biacore T200; Glycer-AGEs-BSA amine-coupled to a CM5 chip, antibody at 0 to 400 nM

| Binder | Kd [1] [nM] | IC50 (read off the curve) [2] [µg/mL] | Kd [3] [nM] | EC50 (read off the curve) [4] [µg/mL] | Kd [5] [nM] |
| --- | --- | --- | --- | --- | --- |
| B1 | 4.15 | 2 | – | – | – |
| B2 | – | – | 87.5 | 0.3 | 57.4 |
